Measurements taken from publication PMC5771957.

Molecular target: T1, CCDC103 (wildtype), N-terminal His10 tagged (H. sapiens), Q8IW40
T1 chain: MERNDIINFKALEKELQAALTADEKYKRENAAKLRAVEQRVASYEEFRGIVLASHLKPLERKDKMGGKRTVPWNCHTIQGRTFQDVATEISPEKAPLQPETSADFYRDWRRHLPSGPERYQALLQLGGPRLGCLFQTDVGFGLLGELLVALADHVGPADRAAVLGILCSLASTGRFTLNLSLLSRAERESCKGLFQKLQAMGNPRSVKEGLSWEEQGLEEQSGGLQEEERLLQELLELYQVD
Test: SEC
Conditions: remark: other sources report otherwise

- stoichiometry N: 2
B1: CCDC103 (wildtype), N-terminal His10 tagged, Q8IW40 1-242 (natural protein)
chain: T1 chain
